Kd data for three substances are collected here from publication PMC10843171.

One assay deals with human FcRn (human) (UniProt P55899). The experiment in a line: not stated.
In assay [1] the target is cyno FcRn (cynomolgus monkey) (UniProt Q8SPV9). The assay is described as follows: not stated.
Assay [2] deals with PF-07209960, anti-human PD-1–IL15 mutein fusion protein (human). The assay is described as follows: SPR; Biacore T200; fusion protein captured via anti-human Fc on a CM4 chip, receptor injected as analyte; 37°C; 10 mM HEPES, 150 mM NaCl, 0.05% Tween-20, pH 7.4, 1 mg/mL BSA; steady-state 1:1 Langmuir fit. Background: Surface plasmon resonance follows binding to a sensor surface in real time, without labels.

Sequence of UniProt Q8SPV9 (Q8SPV9 whole entry, looked up, the tested form may be a part): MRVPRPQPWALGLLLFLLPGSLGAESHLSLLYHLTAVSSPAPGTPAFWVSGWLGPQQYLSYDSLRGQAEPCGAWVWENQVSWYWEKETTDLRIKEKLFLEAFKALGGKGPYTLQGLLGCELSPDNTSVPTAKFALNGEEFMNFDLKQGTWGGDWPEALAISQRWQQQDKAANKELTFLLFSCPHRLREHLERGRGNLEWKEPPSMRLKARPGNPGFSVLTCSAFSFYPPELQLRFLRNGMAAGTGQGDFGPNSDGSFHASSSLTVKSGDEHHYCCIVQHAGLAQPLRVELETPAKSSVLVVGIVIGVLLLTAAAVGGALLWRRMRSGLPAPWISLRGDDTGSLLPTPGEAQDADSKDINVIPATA
Sequence of UniProt P55899 (P55899 whole entry, looked up, tested part not stated): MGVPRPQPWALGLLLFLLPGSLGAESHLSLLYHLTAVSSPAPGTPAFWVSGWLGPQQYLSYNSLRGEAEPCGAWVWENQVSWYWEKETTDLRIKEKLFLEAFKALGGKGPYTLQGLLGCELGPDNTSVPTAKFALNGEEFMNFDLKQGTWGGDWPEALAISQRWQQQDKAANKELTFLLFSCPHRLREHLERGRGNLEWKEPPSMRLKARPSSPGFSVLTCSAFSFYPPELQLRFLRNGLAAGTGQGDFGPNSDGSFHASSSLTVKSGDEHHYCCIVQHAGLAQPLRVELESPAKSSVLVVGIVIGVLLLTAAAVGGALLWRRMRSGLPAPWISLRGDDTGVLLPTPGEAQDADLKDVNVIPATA

Broadly, the Kd is the concentration at which binding is half-saturated. High values mean a looser complex, low ones a tighter complex. Consider “PF-07209960, anti-human PD-1–IL15 mutein fusion protein”, for which the figures for the Kd (with human FcRn (human); in assay [1]) were 1040 nM and 426 nM, respectively.

In assay [2], “human IL-2Rβ (from UniProt P14784 27-551) (receptor)” returned a Kd of 4000 nM. As to “monkey IL-2Rβ (from UniProt Q38J85 27-551) (receptor)”, the Kd in assay [2] came out at 2400 nM.
